B1: GAS2-like protein 1, residues 209 to 276; numbered along this chain, Q99501 (parent)
chain: DELVREILGRCTCPDQFPMIKVSEGKYRVGDSSLLIFVRVLRSHVMVRVGGGWDTLEHYLDKHDPCRC

Variants of: B1
Test: abundance fitness (aPCA) (normalised: wild type 0, dead -1); higher = more abundant; growth selection in yeast, the domain comes from the species named
Conditions: Homo sapiens

Abundance fitness, by site and new letter:
D31: Q 0.048 | P -0.066 | G -0.066 | H 0.039 | V -0.146 | W -0.153 | R -0.087 | S -0.07 | A -0.06 | Y -0.181 | L -0.141 | C -0.146 | K -0.162 | T 0.059 | E 0.007 | F -0.303 | I -0.144 | M -0.148 | N 0.084
S33: L -0.194 | P 0.01 | N 0.113 | Q 0.051 | Y -0.413 | E 0.113 | M -0.074 | T -0.182 | H 0.014 | R -0.043 | D 0.039 | W -0.637 | F -0.549 | K 0.028 | C -0.115 | V -0.647 | I -0.856 | A -0.019
E24: V -0.505 | W -0.422 | C -0.588 | A -0.099 | T -0.579 | Q 0.041 | P -0.246 | L -0.715 | H -0.193 | R -0.417 | D 0.062 | S -0.254
L34: W -0.085 | T 0.05 | M 0.131 | Y -0.015 | G 0.135 | R -0.312 | V 0.103 | N 0.094 | I 0.102 | Q 0.238 | A 0.191 | D 0.379 | E 0.316 | C 0.129 | S 0.154 | H 0.112 | F -0.124
K21: D -0.804 | S -0.747 | M -0.297 | E -0.396 | Q -0.254 | I -0.981 | Y -0.525 | P -0.646 | W -0.397 | R 0.01 | H -0.426 | T -0.739 | G -0.689 | N -0.828 | V -0.791 | L -0.541
V40: P -0.44 | G -0.349 | C -0.097 | K 0.129 | H -0.308 | Y -0.26 | E -0.196 | W -0.661 | S -0.319 | N 0.029 | Q -0.28 | M -0.259 | T -0.137 | R -0.025 | F -0.369
R28: K -0.07 | L -0.05 | P -0.964 | V -0.15 | Q -0.265 | A -0.235 | W -0.403 | Y -0.341 | I -0.208 | H -0.549 | N -0.857 | E -0.516 | C -0.159 | M 0.041 | F -0.668 | G -0.944 | T -0.467
F37: C 0.154 | I -0.007 | E 0.383 | L 0.141 | V 0.054 | S 0.306 | N 0.31 | W 0.051 | K 0.134 | D 0.37 | R 0.189 | A 0.106 | Y -0.07 | M 0.066 | P 0.256 | Q 0.248 | G 0.064
S23: W -0.53 | I -0.861 | A -0.023 | M -0.47 | P -0.914 | K -0.336 | R -0.359 | T -0.036 | D 0.028 | F -0.83 | L -0.809 | V -0.674 | G 0.013 | E 0.099 | H -0.325 | Q -0.141 | C -0.031 | N -0.483
G30: C -0.532 | W -0.952 | T -0.569 | R -0.302 | M -0.432 | E -0.862 | N -0.526 | H -0.653 | K -0.371 | A -0.35 | I -0.803 | S -0.53 | V -0.646 | Q -0.603 | F -0.927 | L -0.605 | P -0.506 | D -0.337
V29: P -0.985 | A -0.34 | W -0.551 | S -0.422 | T -0.531 | Y -0.489 | M -0.187 | G -0.807 | H -0.188 | Q -0.501 | K -0.855 | E -0.978 | F -0.163 | I 0.129 | R -0.305 | C -0.213 | N -0.793
K26: G -0.589 | C 0.204 | F -0.013 | N -0.317 | E -0.418 | T 0.149 | R 0 | M -0.213 | S -0.075 | Q 0.237 | W 0.132 | L -0.145 | V 0.177 | A -0.063 | H -0.035
R39: D 0.089 | T -0.058 | F -0.172 | C -0.216 | E -0.179 | G -0.242 | M -0.172 | V -0.236 | W -0.695 | I -0.294 | H -0.049 | L -0.368 | P -0.728 | A -0.14 | Y -0.333 | S -0.144 | Q -0.03
S32: E 0.013 | V -0.596 | H -0.16 | Q -0.044 | K -0.175 | G -0.085 | R -0.142 | T -0.026 | F -0.749 | M -0.252 | A -0.064 | Y -0.455 | D 0.098 | W -0.892 | P -0.121 | I -0.755 | N -0.071
Y27: C -0.874 | S -0.861 | F -0.579 | W 0.079 | I -0.287 | V -0.996 | R -0.85 | M -0.597 | L -0.849 | G -0.891 | P -0.866 | T -0.855
L35: Y -0.022 | A -0.111 | N 0.097 | V -0.041 | Q -0.171 | E 0.099 | R -0.195 | D -0.003 | G -0.383 | T 0.072 | M -0.025 | F -0.187 | H -0.247 | K -0.227 | W -0.64 | I 0.069 | C -0.013
I36: A -0.209 | F -0.346 | S -0.673 | R -0.542 | W -0.705 | D -0.863 | G -0.683 | T -0.314 | C 0.169 | L 0.148 | K -0.398 | M 0.058 | Y -0.444 | V -0.017 | P -0.592 | Q -0.992
L41: F -0.143 | E 0.143 | R 0.042 | K -0.171 | H 0.175 | Q 0.13 | I 0.148 | P -0.86 | N -0.068 | G -0.293 | C -0.09 | M 0.098 | A -0.148 | D 0.011
V38: F -0.809 | Q -0.837 | N -0.737 | L -0.275 | S -0.626 | M -0.587 | G -0.566 | T -0.402 | A -0.465 | I -0.322 | P -0.3 | C -0.058 | R -0.745
G25: Q -0.13 | C -0.236 | E -0.345 | Y -0.388 | I -1.07 | S -0.158 | K -0.739 | D -0.07 | P -0.809 | W -0.58 | L -0.914 | R -0.328 | V -0.961 | F -0.366 | N -0.116
V22: A -0.311 | L -0.323 | Y -0.795 | F -0.518 | P -0.971 | I -0.035 | C -0.365 | T -0.662 | D -0.327 | G -0.916 | M -0.251 | S -0.848 | R -0.428 | H -0.26

— the Human Domainome abundance scans (Beltran et al. 2025)
